Starred links: 1 amine or outer side, 2 acyl side, 3 side chain; linkers in the order of their positions; H or OH if unused. Positions of bridges follow the written chain, without caps; N, C: chain ends. Non-standard residues stand in square brackets, D forms with d. Primed or numbered codes have the meaning given here. No end group written: not given here. *: point of attachment. TCAZ″ = 1,1',1''-(1,4,7-triazonane-1,4,7-triyl)tris(2-chloroethan-1-one) scaffold, O=C(C[*:1])N1CCN(C(=O)C[*:2])CCN(C(=O)C[*:3])CC1; TCAZ = 1,1',1''-(1,4,7-triazonane-1,4,7-triyl)tris(2-chloroethan-1-one); TATA = O=C(CC[*:1])N1CN(C(=O)CC[*:2])CN(C(=O)CC[*:3])C1; 1Nal = N[C@@H](Cc1cccc2ccccc12)C(=O)O; Pent4ynoyl = C#CCCC(=O)*

The target of assay [1] is T1, Recombinant biotinylated human P-Selectin protein (human, UniProt P16109 42-771, limits assumed, biotinylated (site not stated)).
T1 sequence (looked up): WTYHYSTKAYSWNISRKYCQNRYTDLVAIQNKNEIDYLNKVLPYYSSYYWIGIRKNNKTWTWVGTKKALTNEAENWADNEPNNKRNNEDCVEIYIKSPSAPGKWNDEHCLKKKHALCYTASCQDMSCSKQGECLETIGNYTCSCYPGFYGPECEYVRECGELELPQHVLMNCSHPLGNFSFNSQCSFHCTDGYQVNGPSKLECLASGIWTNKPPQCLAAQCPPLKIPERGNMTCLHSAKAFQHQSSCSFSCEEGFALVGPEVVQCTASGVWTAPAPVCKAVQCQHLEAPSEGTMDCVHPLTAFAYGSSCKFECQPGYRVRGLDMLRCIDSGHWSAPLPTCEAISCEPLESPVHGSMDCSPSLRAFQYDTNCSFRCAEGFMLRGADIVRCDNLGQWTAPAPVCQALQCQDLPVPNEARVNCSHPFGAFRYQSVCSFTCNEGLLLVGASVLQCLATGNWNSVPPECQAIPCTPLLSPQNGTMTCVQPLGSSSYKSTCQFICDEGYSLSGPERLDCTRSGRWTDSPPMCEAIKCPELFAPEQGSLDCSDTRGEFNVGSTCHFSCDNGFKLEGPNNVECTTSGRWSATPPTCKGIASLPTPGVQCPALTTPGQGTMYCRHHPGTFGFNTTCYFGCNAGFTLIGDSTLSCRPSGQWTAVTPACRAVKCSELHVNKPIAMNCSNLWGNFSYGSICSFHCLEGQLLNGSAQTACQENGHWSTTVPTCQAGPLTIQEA
The assay is described as follows: SPR (Biacore), biotinylated human P-selectin captured on streptavidin chip, peptide as analyte; peptide BCY10194 (A-(SEQ ID NO: 6)-A). How it is done:
(§1) Biacore experiments were performed to determine ka (M−1s−1), kd (s−1), KD (nM) values of monomeric peptides binding to human Selectin proteins. Recombinant biotinylated human P-Selectin protein was used. For analysis of binding, either a Biacore 3000 or 5200 instrument was used with a CMS sensor chip (GE Healthcare). For sensor chip surface preparation, streptavidin was immobilized on the chip using standard amine-coupling chemistry at 25° C. with HBS-N (10 mM HEPES, 0.15 M NaCl, pH 7.4) as the running buffer. The carboxymethyl dextran surface was activated with a 12 min injection of a 1:1 ratio of 0.4 M 1-ethyl-3-(3-dim ethyl aminopropyl) carbodiimide hydrochloride (EDC)/0.1 M N-hydroxy succinimide (NHS) at a flow rate of 10 μl/min. For capture of streptavidin, protein was diluted to 0.2 mg/ml in 10 mM sodium acetate (pH 4.5) and captured by injecting 70 μl onto the activated chip surface. Residual activated groups were blocked with a 7 min injection of 1 M ethanolamine (pH 8.5). Biotinylated protein stock was diluted 1:100 in HBS-N and captured on one flow cell at 5 μl/min to a level of 1000-1500 RU. Buffer was changed to PBS/0.05% Tween 20 and a dilution series of the peptides was prepared in this buffer with a final DMSO concentration of 0.5%. […] In all cases a titration was performed with either seven 2-fold dilutions or five 3-fold dilutions. […]
A general note: SPR reads the build-up and loss of mass on a sensor chip optically.

Assay [2] addresses T1, Recombinant biotinylated human …. The assay is described as follows: SPR (Biacore), biotinylated human P-selectin captured on streptavidin chip, peptide as analyte; peptide BCY5462, a separate peptide number. How it is done:
as §1

For assay [3] the target is unchanged. In words: inhibition of 5 nM P-selectin binding to HL-60 cells (PSGL1), mirrorball cytometer, geomean of n=3. How it is done: Bicycle test samples, SelG1 (Crizanlizumab) were serially diluted maintaining 0.5% DMSO in assay buffer (25 mM HEPES, 121 mM NaCl, 5.4 mM KCl, 0.8 mM MgCl₂, 1.8 mM CaCl₂), 6 mM NaHCO₂, 5.5 mM glucose, 1% BSA, pH7.4) and transferred to 384 well clear bottom plates (Corning, 3712) with a final volume of 6 μL. […], of P-Selectin in imaging buffer (25 mM HEPES, 121 mM NaCl, 5.4 mM KCl, 0.8 mM MgCl₂, 1.8 mM CaCl₂), 6 mM NaHCO₂, 5.5 mM glucose, pH7.4) was added to give a 5 nM final concentration and incubated at room temperature for 15 minutes. HL-60 cells (ATCC, CCL-240) mixed with 1 μg/mL far red labelled wheat germ agglutinin (WGA, ThermoFisher W21404) and 1 μg/mL AlexaFluor 488-streptavidin (Invitrogen S11223) were added to the plate and incubated for 2 hours at room temperature in the absence of light. Staining and antibody binding were quantified by simultaneously scanning the microplates with 488 nm and 640 nm lasers on a mirrorball microplate cytometer, AF488 on FL2 triggering on AF647-WGA on FL4. Data was analysed in Dotmatics, using a four parameter logistic fit to generate IC50 values and % response. Percent inhibition was calculated using 100−% response at top concentration.

For assay [4] the target is unchanged. In words: SPR (Biacore), biotinylated human P-selectin captured on streptavidin chip, peptide as analyte. How it is done:
Biacore experiments were performed to determine ka (M−1s−1), kd (s−1), KD (nM) values of monomeric peptides binding to human Selectin proteins. Recombinant biotinylated human P-Selectin protein was used. For analysis of binding, either a Biacore 3000 or 5200 instrument was used with a CMS sensor chip (GE Healthcare). For sensor chip surface preparation, streptavidin was immobilized on the chip using standard amine-coupling chemistry at 25° C. with HBS-N (10 mM HEPES, 0.15 M NaCl, pH 7.4) as the running buffer. The carboxymethyl dextran surface was activated with a 12 min injection of a 1:1 ratio of 0.4 M 1-ethyl-3-(3-dim ethyl aminopropyl) carbodiimide hydrochloride (EDC)/0.1 M N-hydroxy succinimide (NHS) at a flow rate of 10 μl/min. For capture of streptavidin, protein was diluted to 0.2 mg/ml in 10 mM sodium acetate (pH 4.5) and captured by injecting 70 μl onto the activated chip surface. Residual activated groups were blocked with a 7 min injection of 1 M ethanolamine (pH 8.5). Biotinylated protein stock was diluted 1:100 in HBS-N and captured on one flow cell at 5 μl/min to a level of 1000-1500 RU. Buffer was changed to PBS/0.05% Tween 20 and a dilution series of the peptides was prepared in this buffer with a final DMSO concentration of 0.5%. […] In all cases a titration was performed with either seven 2-fold dilutions or five 3-fold dilutions. The SPR analysis was run at 25° C. with a flow rate of 50-80 μl/min with 60 seconds association and a suitable disassociation period (100-900 seconds). Data were corrected for DMSO excluded volume effects. All data were double-referenced for blank injections and reference surface using standard processing procedures and data processing and kinetic fitting were performed using Scrubber software, version 2.0c (BioLogic Software). Data were fitted using mass transport model allowing for mass transport effects where appropriate.

Assay [5] shares this target. The assay is described as follows: SPR (Biacore), biotinylated human P-selectin captured on streptavidin chip, peptide as analyte; peptide BCY12261, a separate peptide number. How it is done:
as §1

Assay [6] shares this target. In words: SPR (Biacore), biotinylated human P-selectin captured on streptavidin chip, peptide as analyte; peptide BCY12257, a separate peptide number. How it is done: as §1
Assay [7] shares this target. In words: SPR (Biacore), biotinylated human P-selectin captured on streptavidin chip, peptide as analyte; peptide BCY12259, a separate peptide number. How it is done: as §1
Assay [8] has the same target. The assay is described as follows: SPR (Biacore), biotinylated human P-selectin captured on streptavidin chip, peptide as analyte; peptide BCY5458, a separate peptide number. How it is done:
as §1

Assay [9] shares this target. In words: SPR (Biacore), biotinylated human P-selectin captured on streptavidin chip, peptide as analyte; peptide BCY5463, a separate peptide number. How it is done:
as §1

The target is the same in assay [10]. The assay is described as follows: SPR (Biacore), biotinylated human P-selectin captured on streptavidin chip, peptide as analyte; peptide BCY5459, a separate peptide number. How it is done: as §1
Assay [11] shares this target. The assay is described as follows: SPR (Biacore), biotinylated human P-selectin captured on streptavidin chip, peptide as analyte; peptide BCY5454, a separate peptide number. How it is done:
as §1

A word on the Kd: it is the constant that tells how readily two partners part at equilibrium. On to ACYMEWCDVTDYGCA-NH2 (linker 2-7-14 via TATA, Monomeric bicyclic peptide) [BCY10194], for which the Kd in [1] came to 9.5 µM.

B1: BCY5462 (peptide)
peptide: Pent4ynoyl-ACYMEWCDVTDYGCA-NH2
modifications: linker 2-7-14 via TATA; also: tetramer of 4 copies via central hinge A (Tet) and spacer S1A n=10 joined to N-terminal Pya
For B1, the Kd in [2] stood at 88 nM.

B2: BCY9717 (peptide)
peptide: Ac-CYMEWCDVTDYGC-NH2
modifications: linker 1-6-13 via TATA
notes: Monomeric bicyclic peptide; also called BCY09717
By IC50 is commonly meant the midpoint of a concentration-inhibition curve. The Inhibition is the drop in the measured response relative to a control, in per cent. Consider B2, for which, in [3], the IC50 is more than 10900 nM and the “Inhibition at top concentration (%)” value is 20%. Besides, the equilibrium dissociation constant (Kd) in assay [4] is 7600 nM.

B3: BCY12261 (peptide)
peptide: ACDADWCDVPSLPCAK(Pent4ynoyl)-NH2
modifications: linker 2-7-14 via TCAZ″; not fully specified; also: tetramer of 4 copies via central hinge A (Tet) and spacer S1A n=23 joined to K(Pya)
In the case of B3, the Kd in [5] amounted to 0.019 nM.

B4: BCY12257 (peptide)
peptide: ACDADWCDVPSLPCAK(Pent4ynoyl)-NH2
modifications: linker 2-7-14 via TCAZ″; not fully specified; also: tandem dimer of 2 copies via central hinge C (GTA) and spacer S1A n=23 joined to K(Pya)
With B4, the Kd in assay [6] stood at 11.6 nM.

B5: BCY12259 (peptide)
peptide: ACDADWCDVPSLPCAK(Pent4ynoyl)-NH2
modifications: linker 2-7-14 via TCAZ″; not fully specified; also: trimer of 3 copies via central hinge B (TCA) and spacer S1A n=23 joined to K(Pya)
Regarding B5, the Kd in assay [7] came to 0.233 nM.

B6: BCY5458 (peptide)
peptide: Pent4ynoyl-ACYMEWCDVTDYGCA-NH2
modifications: linker 2-7-14 via TATA; also: trimer of 3 copies via central hinge B (TCA) and spacer S1A n=10 joined to N-terminal Pya
Turning to B6, the dissociation constant (Kd) in assay [8] was determined as 400 nM.

B7: SelG1 (Crizanlizumab) (antibody, V domains shown)
VH: QVQLVQSGAEVKKPGASVKVSCKVSGYTFTSYDINWVRQAPGKGLEWMGWIYPGDGSIKYNEKFKGRVTMTVDKSTDTAYMELSSLRSEDTAVYYCARRGEYGNYEGAMDYWGQGTLVTVSS
VL: DIQMTQSPSSLSASVGDRVTITCKASQSVDYDGHSYMNWYQQKPGKAPKLLIYAASNLESGVPSRFSGSGSGTDFTLTISSLQPEDFATYYCQQSDENPLTFGGGTKVEIK
Consider B7, for which, in assay [3], the IC50 came to 4.75 nM and the “Inhibition at top concentration (%)” value stood at 96%.

B8: BCY5463 (peptide)
peptide: Pent4ynoyl-ACYMEWCDVTDYGCA-NH2
modifications: linker 2-7-14 via TATA; also: tetramer of 4 copies via central hinge A (Tet) and spacer S1A n=23 joined to N-terminal Pya
For the molecule B8, in [9], the Kd was 53 nM.

With ACDAD[1Nal]CDVPSLPCA-NH2 (linker 2-7-14 via TCAZ, Monomeric bicyclic peptide) [BCY12027], in assay [3], the IC50 is more than 36.8 nM and the “Inhibition at top concentration (%)” value amounted to 36%. Further, the Kd in [4] stood at 5.36 nM.

For the molecule ACDADWCDVPSLPCA-NH2 (linker 2-7-14 via TCAZ″, Monomeric bicyclic peptide) [BCY11648], in [3], the IC50 was more than 117 nM and the “Inhibition at top concentration (%)” value was determined as 37%. Besides, in [4], the dissociation constant (Kd) turned out to be 128 nM.

B9: BCY5459 (peptide)
peptide: Pent4ynoyl-ACYMEWCDVTDYGCA-NH2
modifications: linker 2-7-14 via TATA; also: trimer of 3 copies via central hinge B (TCA) and spacer S1A n=23 joined to N-terminal Pya
As for B9, the Kd in assay [10] worked out at 169 nM.

Take Ac-ACYME[1Nal]CDVTDYGCA-NH2 (linker 2-7-14 via TATA, Monomeric bicyclic peptide) [BCY11279]: in [3], the IC50 was more than 3540 nM and the “Inhibition at top concentration (%)” value amounted to 24%. Moreover, the equilibrium dissociation constant (Kd) in assay [4] stood at 690 nM.

B10: BCY5454 (peptide)
peptide: Pent4ynoyl-ACYMEWCDVTDYGCA-NH2
modifications: linker 2-7-14 via TATA; also: tandem dimer of 2 copies via central hinge C (GTA) and spacer S1A n=10 joined to N-terminal Pya
As to B10, the Kd in assay [11] was found to be 400 nM.

Source of the values: patent US20220339289A1 (Bicycle, published 2022).
